According to the supplement of paper PMC12042874:
± gives the uncertainty stated by the source.

Assay: amyloid nucleation score (Sup35N fusion, yeast selection) (log enrichment); library NNK3; higher = more nucleation; inactive = no reads after selection
Method in brief: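 Growth for 7 days at 30°C on medium lacking adenine and uracil followed a 24-hour induction with 100 μM copper sulfate of psi-negative yeast expressing peptides of 20 random codons fused to Sup35N. Input and output plasmid inserts were sequenced with Illumina, and sequences with under 100 input reads were excluded. Nucleation score is the DiMSum log enrichment of output over input reads, centred on the mode score of non-aggregating sequences.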

SQQRQVMPKRQSEKLYPSH
amyloid nucleation score: inactive

VKSLIELCRYNRPLALDLNI
amyloid nucleation score: -0.519 ± 0.8

TFGHWAMYVSCWDRVVCGVD
amyloid nucleation score: inactive

LLHPYARVDMRVQ
amyloid nucleation score: inactive

SRWLSDSEIENKWFLISDMT
amyloid nucleation score: inactive

NIMVDHS
amyloid nucleation score: -0.476 ± 1.4

MYFFSHPPSNRRE
amyloid nucleation score: inactive

IPNMDAFLERRPREYNWPVA
amyloid nucleation score: inactive

PEAVAAKRPSLQYPFASMTS
amyloid nucleation score: inactive

LAGIMCCEKVYCGPRDGVLG
amyloid nucleation score: 1.69 ± 0.12

RAVYSGVSMD
amyloid nucleation score: inactive

MDITWIKVVHNIHQTVRSKF
amyloid nucleation score: 1 ± 0.22

IFLRYSLSSRYHRCLLLKES
amyloid nucleation score: inactive

SRQRIDYFMVRRSGSWSRQV
amyloid nucleation score: inactive

IALGNVRISRYRVLWAYLSS
amyloid nucleation score: inactive

LHKTTMYFRKISLRRFEMLL
amyloid nucleation score: inactive

VKSFCCFGWVLSP
amyloid nucleation score: inactive

SSYVLNYIHLSG
amyloid nucleation score: 1.88 ± 0.08

FTCPASST
amyloid nucleation score: inactive

FECMRELPRAPTKPGSWRHA
amyloid nucleation score: inactive

SCYDVFSFYPSPFCLTNSVA
amyloid nucleation score: inactive

EKTWKDWTHLSGRKRMI
amyloid nucleation score: inactive

FDVRCLWYCQK
amyloid nucleation score: 1.33 ± 0.17

GFLSGVKVLNGGEDNDTLPE
amyloid nucleation score: inactive

LCNSVRNGNYYTGYGVTLYV
amyloid nucleation score: inactive

VYILFNWSRPSCHLIEHFRA
amyloid nucleation score: inactive

HKDICLNFSVDHLDVMSQCA
amyloid nucleation score: inactive

SCFQQGNFWCSVFFNVGGQL
amyloid nucleation score: 2.64 ± 0.059

PNRWLSRLALRIFLGHCEPV
amyloid nucleation score: inactive

FIVVDMDSYRAVDGARVFVE
amyloid nucleation score: inactive

CVGHVRSYYGMQIPKGLKLS
amyloid nucleation score: inactive

FPICWLRVVDLALFKWMYNF
amyloid nucleation score: inactive

LFRTDFMQTLLCHTIQLLYP
amyloid nucleation score: inactive

GAVWFIRRRPKDRIRRVSLW
amyloid nucleation score: inactive

GLYVVYFNILTTKGYQLIVM
amyloid nucleation score: inactive

NVFFIRNNQTTGRLKFWCQV
amyloid nucleation score: 0.958 ± 0.12

LYRVVSLSYAVCLILSRCFT
amyloid nucleation score: inactive

PSGVTSCLKEWDSRDHGHRH
amyloid nucleation score: inactive

DLDCGTSDMLCCRLVCC
amyloid nucleation score: inactive

RIKYS
amyloid nucleation score: inactive

SYWPVRSELQSVLLNSCGVR
amyloid nucleation score: inactive

FDLFFACFPSRETGLKSCKT
amyloid nucleation score: inactive

VYFGSWTWSVNSKHLPPALV
amyloid nucleation score: inactive

QLCLCRKATLMSPTRLLQRA
amyloid nucleation score: -0.41 ± 1.9

KILFILISFLWMLFLVWNFN
amyloid nucleation score: 1.48 ± 0.1

DSYIVYDKQDPS
amyloid nucleation score: inactive

SLFLLFLWYGINDTYLVYFV
amyloid nucleation score: inactive

YKCHMSVYRGFINCNVVLMR
amyloid nucleation score: inactive

SNIRYRNFRSGFFIQWLHTG
amyloid nucleation score: inactive

LFLMLG
amyloid nucleation score: inactive

LQPGMDFSCRFKRLTLNMVH
amyloid nucleation score: -0.38 ± 0.88

YIVRDNEAYRKYGSANESGC
amyloid nucleation score: inactive

KFLKLQVYASNGSSDPPRLD
amyloid nucleation score: inactive

PTTCSNFSAYWNVCDPHNIS
amyloid nucleation score: inactive

TARDESSGV
amyloid nucleation score: inactive

HINDAYTCVMLYMGLTRWTI
amyloid nucleation score: inactive

NVFLRNLA
amyloid nucleation score: inactive

CANAYWDVCCCYVFLMGLGG
amyloid nucleation score: -0.268 ± 1.1

TDSYICGNMLHKRALKSTSM
amyloid nucleation score: inactive

VSEIFFADVFISWYGISRVL
amyloid nucleation score: inactive

SCDLFSC
amyloid nucleation score: inactive

LKLSSC
amyloid nucleation score: 0.739 ± 0.17

PVYERPRCQNFLGCYWSCAQ
amyloid nucleation score: inactive

VGGQWGAYAAKA
amyloid nucleation score: inactive

SFLSYCC
amyloid nucleation score: inactive

ICYPLFFCNAEWRFEEPCVL
amyloid nucleation score: 2.57 ± 0.075

WFTVHLIVCSVRRLDSFVLP
amyloid nucleation score: inactive

AVTCVDSWMRDTG
amyloid nucleation score: inactive

FMLCLMATLRKGLDANLWVT
amyloid nucleation score: inactive

MRVKGLIRWWETGCEKKSTA
amyloid nucleation score: inactive

IKGLAPRFAVGLDNLMSESM
amyloid nucleation score: inactive

TGVDILIPFFSPSGT
amyloid nucleation score: inactive

SELHRNRPTKLGFCRYESQV
amyloid nucleation score: inactive

IHYGEYNFLGKSRWNHLFFF
amyloid nucleation score: inactive

VLTFNKGFFGC
amyloid nucleation score: 1.26 ± 0.11

FIRLFEYMRGLPLLVKNDSV
amyloid nucleation score: 0.234 ± 0.72

FCLVGIFTCRGTLNTLLALH
amyloid nucleation score: inactive

NYGLLQFISIWSNILVHSNV
amyloid nucleation score: inactive

QSKFFGQWFLRQND
amyloid nucleation score: 0.299 ± 0.21

RNKHYVGRQSVSDSRVLSIV
amyloid nucleation score: inactive

RCMIVASFYLSLIWKI
amyloid nucleation score: inactive

VNFCFFFKLLRGRSGYHLSW
amyloid nucleation score: 2.15 ± 0.09

NEIFIRLLSNMKEPR
amyloid nucleation score: 1.31 ± 0.14

DWATFNLIKAVYLRRCSCGL
amyloid nucleation score: inactive

LSELVLSWMQMDSCTRFDMC
amyloid nucleation score: inactive

QRVSFCIEVIGFQ
amyloid nucleation score: -0.042 ± 0.98

FIRTGELLFLVEWPLVCYTK
amyloid nucleation score: inactive

FHFFYYTLFNCHHGLFTSFF
amyloid nucleation score: inactive

FLVYLRR
amyloid nucleation score: 1.17 ± 0.11

SQTLQKDLAPSAKLCKIPGV
amyloid nucleation score: inactive

RNMEPDASVATV
amyloid nucleation score: inactive

VPDLYSTEDGFSCCVSEYCT
amyloid nucleation score: inactive

FIRLYDKIRWYNDGNWVWHV
amyloid nucleation score: inactive

VLILCIKNTCLNQCASSCHR
amyloid nucleation score: 2.02 ± 0.068

YNSYK
amyloid nucleation score: inactive

LRDFRKVSPAKVIDNRFQTD
amyloid nucleation score: 0.827 ± 0.17

CLCSMHLRWRSSNWRGYEHF
amyloid nucleation score: 0.474 ± 0.31

VIGAFRLYNFNVALISSNIS
amyloid nucleation score: inactive

LKKYCMYMSSY
amyloid nucleation score: inactive

CMRGWNSRVE
amyloid nucleation score: inactive

MSRGGYWSKVR
amyloid nucleation score: inactive

AVVVIQRYLAVHCWVFGERI
amyloid nucleation score: -0.57 ± 0.93

LHCSVSSQTELVPTENRGGW
amyloid nucleation score: inactive

LICYQDLRLLAPWVQG
amyloid nucleation score: inactive

SYNKEKVSKTFVGCPTRSMV
amyloid nucleation score: inactive

KLLSRYSTACMLRINLIRRY
amyloid nucleation score: inactive

RSFSLGRLSYYRGVTNILLA
amyloid nucleation score: inactive

VHTCGRKVWFEA
amyloid nucleation score: inactive

DAFRSSYWIICMTEAHLYKF
amyloid nucleation score: inactive

NLMCVNTVGLKYGPRELSNH
amyloid nucleation score: inactive

IHGKGGLWSHSISIHWNN
amyloid nucleation score: inactive

SLSHECTSNKTEQVIERRLW
amyloid nucleation score: inactive

LCNSVAYPDSGTVRLLKREL
amyloid nucleation score: 0.005 ± 0.6

LDMSFSGYTRVLARSISTDA
amyloid nucleation score: 0.474 ± 0.65

HYNVFGGRLSSSRNMYKGVY
amyloid nucleation score: inactive

SIYCTLRVVGT
amyloid nucleation score: inactive

LLCVDSTKTMIAYD
amyloid nucleation score: inactive

KALVGKYFKMCRTCDRYFYC
amyloid nucleation score: -0.416 ± 0.98

CSFSISSSGVLWRGKERPIG
amyloid nucleation score: 1.05 ± 0.18

SSTPIFFLFFKSVQQVFNFP
amyloid nucleation score: 0.722 ± 0.18

TLDVQGTCH
amyloid nucleation score: inactive

TYSIISENIVVFFNRM
amyloid nucleation score: 2.58 ± 0.059

SLRSCGSGLRSYRAVKTLPG
amyloid nucleation score: inactive

TLSDQFDMISWVSK
amyloid nucleation score: inactive

YLRDNKAWLASSSKL
amyloid nucleation score: inactive

WDNITRNWRSCPHQMSLRYL
amyloid nucleation score: -0.148 ± 1

RRAMIGIFSITVRFADNGWK
amyloid nucleation score: inactive

LAIVRRCWNLRYAGYEI
amyloid nucleation score: inactive

VPMFSSLCPYTISLFQGTSP
amyloid nucleation score: inactive

SKVPYPNLVTCVVLCVGFYV
amyloid nucleation score: inactive

YSGSNITTHNVFNETGDWSG
amyloid nucleation score: inactive

GKCVGEPPAQSEKTWRNGSL
amyloid nucleation score: inactive

TNVRIYCSWGVDAG
amyloid nucleation score: inactive

MWVQEYKTNNGYSLA
amyloid nucleation score: inactive

SSYSWMGVFIYLDRIINYTH
amyloid nucleation score: -0.339 ± 0.63

FKDCED
amyloid nucleation score: -0.328 ± 0.6

IQDHYSDPAN
amyloid nucleation score: inactive

CCFIYECSLRNLSALVDDQR
amyloid nucleation score: 1.18 ± 0.091

LTGACVLNR
amyloid nucleation score: 0.106 ± 1

RIKFNHTAFNWFQIF
amyloid nucleation score: 1.69 ± 0.091

IGPVVGGYRYMCPASDHK
amyloid nucleation score: inactive

WIFENMSYIRKICQWCKSYV
amyloid nucleation score: inactive

MWCMGNSVGSVWSRCTYMRY
amyloid nucleation score: inactive

RKCCGVLSLSASLHDRDDGC
amyloid nucleation score: inactive

YRANINRVLVFQLN
amyloid nucleation score: 1.44 ± 0.086

FLRSSVCA
amyloid nucleation score: inactive

VCNMRVYI
amyloid nucleation score: inactive

ACNDVIHVASSRDLMGAHPR
amyloid nucleation score: -0.396 ± 0.87

MFRHVWVTNEVLSCGYIVTG
amyloid nucleation score: inactive

KVVRVIVSEGNRVIKFTTMP
amyloid nucleation score: inactive

QFKLHCYRGMVVNHSLMCDT
amyloid nucleation score: inactive

SAVSTRW
amyloid nucleation score: inactive

RYYSDNDYAMQLLLEHTALY
amyloid nucleation score: inactive

IVRLFLDVSSVTGHIWARCL
amyloid nucleation score: inactive

LKSSPNPFMNNGFIISAILG
amyloid nucleation score: inactive

WYMHTTLD
amyloid nucleation score: inactive

MSSSSAFD
amyloid nucleation score: inactive

FRDVPGLLCR
amyloid nucleation score: inactive
